The text below walks through data of the supplement of paper PMC12636428.

The subject of the series is Saccharomyces cerevisiae. As to the kind of experiment: transcriptional activation domain activity (GFP:mCherry ratio, weighted mean of sorted bins, harmonized to initial dataset scale) (arbitrary fluorescence ratio units); higher = stronger transcriptional activation. Conditions: beta-estradiol 1 µM; induction time 4 h. The method in brief:
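After a 1:5 dilution into SC with 1 uM beta-estradiol and 4 hours at 30 °C, yeast diploids carrying a GFP reporter and URA3-integrated barcoded tiles were sorted into 8 bins by GFP:mCherry ratio. The tiles were fused to an estradiol-inducible synthetic transcription factor. Barcodes were sequenced, tiles below 50 reads were discarded, and activation activity was taken as the read-weighted mean of bin median fluorescence, averaged across barcodes and linearly mapped onto the initial dataset scale.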
As for “DTCTKVHGRVFSREVHHIRFNRITTSTIVALRVASEVGAIWMLPMIYYTIVCW”, the “transcriptional activation domain activity” value worked out at 24200.
To “EDEEEAPAKVIKAKRAPPKRKAPAKDDDDEESAEEKPKKKKAPSKKAAAKAQA” belongs 38200; to “FLDFLDLWTFGLFGPLDFLDFLDFLDFLDFLDFLDFLDLWTFGLFGPLDFLDF”, 46900.
“KVDNGRKVDNGGKVDGRKVDNGGKVDDGRSVNDRGRADKGGGVVKGGRLVEGG”: the “transcriptional activation domain activity” value amounted to 24900.
Turning to “LAQAFFASMPVVCFLTFGLFVLFALVAGFLFFTLFWVGLAFCVLVPVLVVTFC”, the “transcriptional activation domain activity” value was found to be 49000.
To “TRTVLFSRGACVILFPWLMYAVGLLLHMIIVNYRLYILYWLLVLKRPIGGFKF” belongs 57500; to “DAAAEKSGNDVSEKSSGPRAKRRKVDPELDTVDEEPKKQRSKKRVKVSVPNGI”, 45800.
Take “EYFYYKMLAPSAATVFYVYVGLIKMSIALFNIRLTTLTTKLWGNVNWAFFVIC”: the “transcriptional activation domain activity” value was found to be 63000.
Take “MLPRLFFVAFATIPSPSSPLPPLPFLSSLAFFFSFFPHLISFLFVFFSFHTFF”: the “transcriptional activation domain activity” value was 51400.
“DKNYNNLTVYNFVYLFGGRVHLYKNLTFHVVVTYVCVISSIVFFLVFIAKWYW”: the “transcriptional activation domain activity” value amounted to 52100.
For “VQLVLVLILVNILINILTFLILSHQGVMHTSCLYLFAYICARLCLGASLSGVW”, the “transcriptional activation domain activity” value came out at 12800.
Regarding “KKGGKAAKSADRPPSRSRLEEEYVFIDVVSSFLRAIRARVIHIRHGAIVLAHY”, the “transcriptional activation domain activity” value stood at 64100.
Then “SKAGLILVIRRQGNEIICGAYRNLGFKMLWKLYVKSLFDVMGQWHEVYATSKP”, with 64000; and “LFCLPDTAACGAMHAWRSWATSFLLFSFFAAICGQFFSLLFSYLLLFLCYWVI”, with 42900.
To “ENEDDAFGALNYNSLDATTMSAFDNNVDPFNILKSSPAQDQQFIKPSMMLSDN” belongs 77200.
Take “MKLVRFLMKLNNETVTIELKNGSVIHGTITSVDPQMNTHLKSVKLSLRTAAPG”: the “transcriptional activation domain activity” value is 24700.
With “TGSTIVRGVLHVFSDQKVNLEQISFGQLNKMIGLLGERRDYRTLSWLLTILWN”, the “transcriptional activation domain activity” value came to 73300.
As to “MVLLTFSLICNSCATVLELSEHLPVPWDVFCQHMCVRFLLPLLRVAAHALTSA”, the “transcriptional activation domain activity” value came to 43000.
Then “MSLFFLLFPHVFAFILFLLSSFYSLSPIHSVFYPSFSLFPLSSLFYLTFPFSL”, with 59400.
Then “YDIVCQWWRNLVDRLKELPPLVRISLILELCQFVIPKMHIHSHTLLCQLLFSL”, with 59100; and “VLYSSLITIFTAFYWNVASTSSVQILALLLPYTHPNIAHASTIRPFLIYALFT”, with 66700.
Then “SEVKYFWSYYNHVCFLVIPIDDNGLSIFFSCFTGESVEIILSIICVAMTQVLT”, with 35200.
For “RQCMLYLIAYFMLQETFGTYFNVTGILQNEYYRPSFGLLPLLMRARIIHYSPL”, the “transcriptional activation domain activity” value was 34600.
“VGIKVAEDKQQEMRDAGRRTRGARLSSFGNALVIGGGRLSDGYVGTRELKTHV”: the “transcriptional activation domain activity” value was 50500.
Then “NIHLVNMAQVVVIFFHRLLYGIIPLFEITTCAFFPVLVSLWHLAYILFYVVMF”, with 69100.
As for “EVGAKTFLAGLAGSGGSGGVYRCVIDKSRPAVWRLRKNDAPLSSFAAALLVSN”, the “transcriptional activation domain activity” value turned out to be 72500.
Then “GKGHYVTFSFVMADIILGMSAPMLRICVCHCVPQRQRKSNIILLQIILLFYER”, with 54500.
Then “MGVLLFGFWVCCCTKLLFCHYCFFFFLFLHFFFLATVLYIVNCCMLLLVLLLG”, with 67700; and “IMTKSEQQIVKCVKLMLSSSEKRYRLFNDSFSVIIFRIVDMNYGLRLLNLIID”, with 56100; and “TATVQYSERRRGTVTAFNDEKGYGFAADSDPASLGNKEVLVHHKKIKSTARHK”, with 24200.
To “KEREQREQREQRRKEEREREKERERERELRERERERERERQQAREEAERAAMG” belongs 15400; to “MASASLASKQSIRPHRKSRTGCSTCKRRKVKSLAVVGAGLGRSGQVTAGSPTG”, 54100.
Take “SSSSKKQNQSADGERKKPKKTDGAEKGESVRRKSDSGGKSVKSEEKTTKGIQK”: the “transcriptional activation domain activity” value worked out at 28800.
Then “IIRARIFSYLYYGVKKFTFLFPINTVITNMAATLLCAVLVIYCTLTILPMIYY”, with 62200.
To “LFFIAVSQLGFVCSYLVFISGNLVNVVDVLSSCAAHLDQKYYIWIPLILVLPL” belongs 59900.
As to “NRTLSTKDLIVLRLCSSFFAYFIISLFYCLMNLAFQIVVDRKFGQAGFIVFWM”, the “transcriptional activation domain activity” value amounted to 62100.
Consider “MFLKSELHFNEPLQHILISFIFLSCLSNLALMIFSVVYKVYILLALIMLVYAN”, for which the “transcriptional activation domain activity” value turned out to be 51900.
As to “PRFLMYCKLGICQLVILRLFTSTFTIVLEMMGLFCPESMSWRFGHFWAVLFNF”, the “transcriptional activation domain activity” value was determined as 63600.
In the case of “MVLLTTLSKKTTIVTVLCSTVINMGKFGFTRHNHRCMRTGALLCLLLFLAYHF”, the “transcriptional activation domain activity” value worked out at 42800.
To “YADWLLEPEQNNGTWVSDVLWPAINLDLQWISLHWNESSWDLWWPPVWGGSYW” belongs 52100.
Then “SAEHQTEAYESDGGRQCVRLLLTSYCSPILIVALHPVLPGRFLCVVKLATQKS”, with 39900.
Turning to “GETVFYKGQGKKRQEIRAPLRRGMALLHRHGHECLLHEGTQVLKGIKYVLRSD”, the “transcriptional activation domain activity” value turned out to be 54600.
Consider “MTLITIIDLESFIFEDCIDLILFSQFLDSFQHSAVLTAYINWYTNADWWRSIV”, for which the “transcriptional activation domain activity” value was 66900.
Then “RGSLREDESQHIATGVEGVHEARDGGRRTSNARAEKTKRVATPVCLSAAHTRG”, with 28600.
For “MGGVVWCFYRVFLFPFLLSPIIPSLLLSSLHTFPLSLTFTFTFILCRMFYVCT”, the “transcriptional activation domain activity” value was determined as 53500.
Then “SGLPIQYLNGSVTYQDGWVWLPGDSTDINATVQDLEDMWDSMVLNFWPLMTLF”, with 66100; and “CFICYGYIVIRWWIEADRDPELIHQALVMIWYPIAYFVEIFPQSMVRVLNMHA”, with 52600; and “TATKPTESKPVETKTDAAAAGKSTTPANGSGSASATKPAETASTTEKKKKNRL”, with 30400.
Then “AAASAPAPQNDGFSEVQHSRGGRGRGGHPSGERGGYRGRGRGGPRGDFGGRGR”, with 49600.
Regarding “RRDSVSSSSRGQGGEKGRASSKESNNSGRQGETTSNRSQSKNRAKQTKGDKDS”, the “transcriptional activation domain activity” value worked out at 15900.
For the sequence “DRNYKRVAKQVGFTIDRKRGDDLRHFPIERARLEIIWPLLYTGLACILCYGWA”, the “transcriptional activation domain activity” value stood at 70900.
Then “VRSRALLFVFKYYFFLVYFVFYRNLFARLRSFDQFALVQLLSSFWVCIWYPFS”, with 48400; and “MLISLLVRLGLDIFMHLYMLLLHISQFSDLLHTRSFLLILFLISGASKRLFFF”, with 51900.
With “MGCVRHEKVIDITLKLFYKKTGGRYLKSEYNLFAVLVYLCLYRLPTDLPFATL”, the “transcriptional activation domain activity” value was 53200.
Take “EREKKKGREKEEKGGKERRGKKGRGKEEGKKRRKRGRKERKEGRKGEEGKRGR”: the “transcriptional activation domain activity” value was 33600.
Take “LLWGLALVCAFAFGRRRRRWWWWWWWWWLLLLLLLFIFFFWICLSLRFLLWTR”: the “transcriptional activation domain activity” value amounted to 54100.
Then “ATPAPAPGMSAAPAPAAEPVESTPKAESKPEPKPEPKAEPKAESKPAAKPAAA”, with 19500; and “KGGGAGGGKRAKKEESSDDEAAKPLAKRGKGTANGRANGKARASSAAPVDNQK”, with 44600; and “KLLNYLQMDRAKVVSFTIFVFVWSYFRHYLNLVILWSVWTQYDLIPQFARRWV”, with 40000.
For “GLAIIRWQRGFRDYDNVTFKRFDYEVGMSILGWAFHYFPFFLMARQLFLHHYL”, the “transcriptional activation domain activity” value was 52400.
To “LGSLTFLDNAFQLDLEFLLSSNMTMPSPLDTCFDFLFPFTQMPSLEPCTFPPV” belongs 138000; to “VVTLHEILKCLGHLRSLVLTAKAFGCLQAIRMILEHFLLVWRKTITHCLRYSE”, 60400.
As for “LALQRMDWHSVFRKTFYESRSWLHLLTNFSRIWIMHISAFWYYMAANIDFFYR”, the “transcriptional activation domain activity” value worked out at 56400.
Turning to “MSLPGGFIFCCLFIFIFFAPFYSTFLRFFFPSCFYLFFYICCSFFFFFFFFPP”, the “transcriptional activation domain activity” value was 38900.
Consider “MEHLVYHAPGVLPKMECRPPFRLCLLLLILFLFLFLCCQKVPLWIFACRFCCG”, for which the “transcriptional activation domain activity” value came to 41200.
To “MIPLSHRKHKLISLPYLLVSSWLFLSVTLSIPLLQSYIAKHYSTGLVLFLLYF” belongs 71900.
As to “MHLQGFVAWMFYILNCLAFSLRIISHWIFPIYLIWGIGLVENDYSSIDSWFLL”, the “transcriptional activation domain activity” value is 42100.
To “EGEEGEEGEEGEEGEEGTCCASPLQSLALSRLRLGLSLLVDCISIESMRTYRL” belongs 34500.
Turning to “THYLCFIFSPRKLWPMNTQVSIPLFHLLILPVSPWIKQLYWLVFWNLFFVWWM”, the “transcriptional activation domain activity” value turned out to be 56200.
To “VAGVKSDWDASSDEEEKPVPVAERVNGASSQKSAASKSPSKVTPMPSKTAHLV” belongs 21300.
Take “GDEKLAKGRGDEKPAKGKGKEKKAKAKGKKAKGEKKAEDKENAVKESLENAVK”: the “transcriptional activation domain activity” value was found to be 32800.
To “KAMGLLDSARIVSWHVSYSLVHLPSWISFAIIYKVRLFVKTNILILLVVHVLF” belongs 41600; to “MALKAREELEEIYGMPVIYIPVFISCMHRINAVLLSLGNFLLISGAYLRSSFV”, 53200.
“VVSFFVILGYMLLYRMRSTQLWSNRSTSSFGERPKPPIVAYRSIIIRIGLRKL”: the “transcriptional activation domain activity” value came to 67300.
